Drawing on publication PMC6220978, “Induced conformational changes activate the peptidoglycan synthase PBP1B” (Molecular Microbiology, 2018), this text covers Kd for one molecule.

Test in all cases: SPR; PBP1B versions immobilised to the chip surface; LpoB injected from 19.5 nM to 10 μM; apparent KD by non-linear regression, at least three independent experiments
Details in all cases: both partners purified

For assay [1], the target named is T1, PBP1B E341A (E. coli, UniProt P02919 46-844, E341A).
T1 construct: PBP1B, E. coli, residues 46-844, made by mutagenesis of pDML924; source: E. coli BL21(DE3), purified (membrane extract, HisTrap, thrombin, HiTrap SP ion exchange)
T1 sequence (looked up): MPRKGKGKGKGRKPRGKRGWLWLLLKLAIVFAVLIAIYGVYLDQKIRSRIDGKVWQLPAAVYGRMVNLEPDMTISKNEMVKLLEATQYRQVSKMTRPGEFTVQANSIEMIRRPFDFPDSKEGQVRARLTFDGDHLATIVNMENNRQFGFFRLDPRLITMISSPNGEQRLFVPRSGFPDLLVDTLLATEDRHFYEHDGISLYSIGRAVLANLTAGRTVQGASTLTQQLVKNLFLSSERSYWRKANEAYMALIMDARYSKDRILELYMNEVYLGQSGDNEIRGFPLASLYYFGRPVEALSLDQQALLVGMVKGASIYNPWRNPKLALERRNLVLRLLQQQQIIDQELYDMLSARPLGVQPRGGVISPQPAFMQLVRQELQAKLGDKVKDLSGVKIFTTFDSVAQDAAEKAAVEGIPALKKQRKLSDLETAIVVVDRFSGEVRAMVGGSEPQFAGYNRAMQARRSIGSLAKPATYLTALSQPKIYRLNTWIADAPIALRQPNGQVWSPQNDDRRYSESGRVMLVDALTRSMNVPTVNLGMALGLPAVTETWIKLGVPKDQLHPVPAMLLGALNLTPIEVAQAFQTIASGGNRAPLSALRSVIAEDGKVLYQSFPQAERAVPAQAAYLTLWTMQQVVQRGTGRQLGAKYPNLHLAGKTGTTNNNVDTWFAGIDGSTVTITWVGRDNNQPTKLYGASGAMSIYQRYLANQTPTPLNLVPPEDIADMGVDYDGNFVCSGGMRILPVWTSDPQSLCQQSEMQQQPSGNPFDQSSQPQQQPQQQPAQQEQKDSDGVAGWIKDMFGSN

Assay [2] addresses T2, PBP1B I202F (E. coli, UniProt P02919 46-844, I202F).
T2 construct: PBP1B, E. coli, residues 46-844, made by mutagenesis of pDML924; Substitution first found in the suppressor screen of Markovski et al. 2016 (LpoB bypass); source: E. coli BL21(DE3), purified (membrane extract, HisTrap, thrombin, HiTrap SP ion exchange)
T2 sequence (looked up): T1 sequence (looked up) with I157F, A296E

The target in assay [3] is T3, PBP1B D160C/K437C (E. coli, UniProt P02919 46-844, D160C | K437C).
T3 construct: PBP1B, E. coli, residues 46-844, made by mutagenesis of pDML924; Disulphide bridge between C160 and C437 (no free thiol groups detected); reduced in the SPR assay with 2 mM TCEP; source: E. coli BL21(DE3), purified (membrane extract, HisTrap, thrombin, HiTrap SP ion exchange)
T3 sequence (looked up): T1 sequence (looked up) with D115C, A296E, K392C

Numbering of substitutions follows the chain as printed.

B1: LpoB (natural protein, E. coli)
chain: VGQREPAPVEEVKPAPEQPAEPQQPVPTVPSVPTIPQQPGPIEHEDQTAPPAPHIRHYDWNGAMQPMVSKMLGADGVTAGSVLLVDSVNNRTNGSLNAAEATETLRNALANNGKFTLVSAQQLSMAKQQLGLSPQDSLGTRSKAIGIARNVGAHYVLYSSASGNVNAPTLQMQLMLVQTGEIIWSGKGAVSQQ
notes: LpoB, E. coli; also called lipoprotein LpoB; source: E. coli BL21(DE3), purified (HisTrap, Superdex 200), as in Egan et al. 2014
Consider B1, for which the Kd in assay [1] was 273 nM; in assay [2], 26 nM; in assay [3], 3970 nM.
